Source: publication doi:10.1101/2025.10.31.685832

Target: MelA1 (Candidatus Melainabacteria bacterium isolate SJ512)
Assay: SEC; size-exclusion chromatography of MelA1; column and buffer not told

Substance: MelA1 (natural protein)
- stoichiometry N: 2
